Source: patent publication US20050064518A1 (PURDUE PHARMA L P, published 2005)

Target: T1, shed CA 125/O772P polypeptide (human, UniProt Q8WXI7 1-14401, limits assumed)
T1 construct: OVCAR-3 conditioned medium in the western blot; also called high molecular weight species in OVCAR-3 supernatant
Assay: western blot of OVCAR-3 conditioned media (Time 0, 1 hour, 6 hours, Day 1, Day 2, Day 3), chemiluminescence

B1: monoclonal antibody 368.1 (antibody, V domains shown)
VH: EVQLQQSGPELVRTGASVKISCKASGYSFTGFYMHWVKQSLGKSLEWIGYVSCYTGATTYTQKFKGKATFTVDTSSSTAYMQLNSLTSEDSAVYYCAREGDYYSMDFWGQGTSVTVSS
VL: DVVMTQTPLSLPVSLGDQASISCRSSQSLERTNGNTYLHWYLQKPGQSPKLLIYKVSSRFSGVPDRFSGSGSGTDFTLKISRVEAEDLGIYFCSQTTHGPPTCGGGTKLEIK
notes: Murine hybridoma antibody
Question: Does B1 bind?
Answer: Result: no binding (tested: Day 3 conditioned medium)
